Measurements published in article PMC13431160.

Target: IRE1, ER stress sensor RNase, endogenous in HCT116 cells (human (endogenous in HCT116)) (UniProt O75460)
Test: co-IP; endogenous IRE1 immunoprecipitated from HCT116 WT lysate (anti-IRE1 clone B-12 cross-linked to protein G Dynabeads, 3 h at 4°C; 25 mM HEPES pH 7.3, 150 mM NaCl, 0.5% NP-40); cells treated with DMSO or TM 5 µg/mL 4 h; with or without RNase I and RNase T1 in the second wash; Western blot of IGF2BP3

UniProt O75460, sequence (O75460 19-977): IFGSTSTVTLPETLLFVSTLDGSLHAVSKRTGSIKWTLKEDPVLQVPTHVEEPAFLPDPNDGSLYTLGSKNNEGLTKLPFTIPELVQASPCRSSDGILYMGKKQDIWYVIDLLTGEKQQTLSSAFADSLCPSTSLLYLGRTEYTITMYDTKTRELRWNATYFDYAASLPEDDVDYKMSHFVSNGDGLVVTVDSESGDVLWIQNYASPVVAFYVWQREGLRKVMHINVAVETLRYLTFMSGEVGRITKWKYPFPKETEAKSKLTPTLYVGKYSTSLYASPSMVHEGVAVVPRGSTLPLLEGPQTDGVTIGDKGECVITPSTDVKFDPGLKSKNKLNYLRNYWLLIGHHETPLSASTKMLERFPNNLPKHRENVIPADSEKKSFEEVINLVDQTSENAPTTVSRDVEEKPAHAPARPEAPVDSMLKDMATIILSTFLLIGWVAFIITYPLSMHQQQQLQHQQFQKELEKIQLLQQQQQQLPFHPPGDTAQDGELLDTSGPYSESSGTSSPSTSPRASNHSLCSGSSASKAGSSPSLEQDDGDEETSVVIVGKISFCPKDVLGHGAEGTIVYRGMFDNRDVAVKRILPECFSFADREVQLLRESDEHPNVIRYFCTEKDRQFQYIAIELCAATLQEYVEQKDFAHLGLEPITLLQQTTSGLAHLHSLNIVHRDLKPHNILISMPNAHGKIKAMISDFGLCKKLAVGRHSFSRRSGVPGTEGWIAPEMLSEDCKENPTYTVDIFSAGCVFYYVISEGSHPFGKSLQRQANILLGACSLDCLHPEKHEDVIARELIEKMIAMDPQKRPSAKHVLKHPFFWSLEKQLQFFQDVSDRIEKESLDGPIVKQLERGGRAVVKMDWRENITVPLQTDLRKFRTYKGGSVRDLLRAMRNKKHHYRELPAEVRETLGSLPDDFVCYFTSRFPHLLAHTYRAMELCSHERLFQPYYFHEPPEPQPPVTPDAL

fold change of the interaction after 4 h of ER stress against unstressed controls: 1.6 fold
Substance: IGF2BP3 (insulin-like growth factor 2 mRNA-binding protein 3), endogenous in HCT116 cells (from UniProt O00425 1-579) (natural protein)
